± gives the standard deviation.
Test: protein stability index of a GFP-peptide fusion (GPS, HEK-293T) (PSI 1-6); higher = more stable
[1] = treatment: DMSO, c terminus: a fixed tail appended
[2] = treatment: MLN4924 1 uM, 8 h, c terminus: a fixed tail appended
[3] = treatment: DMSO, c terminus: native
[4] = treatment: MLN4924 1 uM, 8 h, c terminus: native
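Note: 24-mer peptide tiles fused after GFP, lentivirally expressed, FACS-sorted into six equal bins by GFP/DsRed ratio, decoded by Illumina sequencing, PSI is the read-weighted mean bin number.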

Row | Sequence | protein stability index [1] | protein stability index [2] | protein stability index [3] | protein stability index [4]
1 | DCGTIQENWVCLSCYQVYCGRYIN [HDAC6] | 2.85 ± 1.1 | 2.39 ± 0.63 | – | –
2 | DCLKKFNARRKLKGAILTTMLATR [CAMK2D] | 3.04 ± 0.78 | 3.49 ± 0.37 | – | –
3 | DDCDDDDDDAQILPSPVQACSEDS [DRICH1] | 5.48 ± 0.46 | 5.62 ± 0.24 | – | –
4 | DDKDALVFVLIDEVESLTAARNAC [TRIP13] | 2.21 ± 0.32 | 2.38 ± 0.34 | – | –
5 | DDSVMKATQQARKRNFISSKSKQP [C22orf31] | 4.87 ± 0.15 | 4.98 ± 0.2 | – | –
6 | DELALSLGYAASLEASVQDDAGTS [C2CD2L] | 5.34 ± 0.32 | 5.22 ± 0.21 | – | –
7 | DERRQLQHLKSKALRERWLLEGTP [PALM] | 3.54 ± 0.44 | 3.71 ± 0.23 | – | –
8 | DEVDDFEDFIFSHFFGDKALKKRS [PBXIP1] | 3.26 ± 0.23 | 3.29 ± 0.39 | – | –
9 | DEVPGSQGSQASQAPPVPGPPPGA [NR2F2] | 5.45 ± 0.23 | 5.604 ± 0.036 | – | –
10 | DFGFAILGFAYAKEDKIMLDDRKN [MIA2] | 2.05 ± 0.26 | 2.16 ± 0.48 | – | –
11 | DFKSCPQGPQGREGLAFLVSCPEG [PWWP2B] | 3.61 ± 0.15 | 3.75 ± 0.16 | – | –
12 | DGLPLHFFIQTVRPKDTVMCYRVR [MYORG] | 2.15 ± 0.43 | 2.24 ± 0.31 | – | –
13 | DIKAEPQPLSPASSSYSVSSPRSV [ATF6] | 4.61 ± 0.14 | 4.74 ± 0.44 | – | –
14 | DKFKRPTPPPSPNTQTPVQPPPPP [CCDC6] | 5.03 ± 0.091 | 5.12 ± 0.16 | – | –
15 | DKKTCTKIDYCASSNHGCQHECVN [MATN2] | 4.11 ± 0.22 | 4.23 ± 0.13 | – | –
16 | DKPVTGPRNKTENGLTPKKKIQVN [ATF6] | 4.81 ± 0.31 | 4.63 ± 0.32 | – | –
17 | DKVLGTFEFDETSFWNSSHPRGWN [KLHDC2] | 2.93 ± 0.45 | 3.23 ± 0.61 | – | –
18 | DLIDRGWRRSGKYVYKPVMNQTCC [ATE1] | 2.26 ± 0.14 | 2.23 ± 0.23 | – | –
19 | DMRDPTYRPLKQELQGLDYCKPTR [SPSB1] | 3.76 ± 0.59 | 4.04 ± 0.55 | – | –
20 | DNALWERDRNLLQEDKALWEEEKA [CCDC70] | 5.57 ± 0.32 | 5.05 ± 0.31 | – | –
21 | DNLGYRTGYPYRYPALREKSKKYS [ADD1] | 3.56 ± 0.13 | 3.69 ± 0.1 | – | –
22 | DPFDEIILFSLPPALDWDSVHVPG [PTPN9] | 2.55 ± 0.29 | 2.6 ± 0.19 | – | –
23 | DPGVQELEALIDTIQKQLKDHSCK [EFHC1] | 3.93 ± 0.28 | 3.97 ± 0.25 | – | –

Row | Sequence | protein stability index [1] | protein stability index [2] | protein stability index [3] | protein stability index [4]
24 | DPQNGFDVNNLDPDLRSLFSRAGI [WAS] | 3.93 ± 0.3 | 3.81 ± 0.32 | – | –
25 | DQLTQIMRTGQNTWESKNILAVSF [PCMTD1] | 2.21 ± 0.22 | 1.92 ± 0.36 | – | –
26 | DQWNILQTPILEGRSGPGCAVLDD [KLHL14] | 4.37 ± 0.34 | 4.16 ± 0.26 | – | –
27 | DQWTPIAAMLRGQSDVGVAVFENK [KLHL13] | 3.53 ± 0.2 | 3.42 ± 0.2 | – | –
28 | DRPDLSLTVLPKLQARERGEEQVE [C2CD2L] | 5.37 ± 0.13 | 5.27 ± 0.16 | – | –
29 | DRVILSSSTSCLMPSKLFAGLVHV [CRYL1] | 2.27 ± 0.64 | 2.58 ± 0.49 | – | –
30 | DSAELEPGSQTAVKNSNRYDVEMT [FBXO34] | 5.26 ± 0.2 | 5.29 ± 0.2 | – | –
31 | DSFVVQYEDTNGQPQALLVDGDQS [TNXB] | 5 ± 0.27 | 4.83 ± 0.39 | – | –
32 | DSLEKTDDDKYKITLKYPHYFPVM [NLN] | 2.73 ± 0.27 | 2.7 ± 0.28 | – | –
33 | DTGVFAVVNSHSLSLLGKLTISAA [SLC22A15] | 2.5 ± 0.42 | 2.33 ± 0.53 | – | –
34 | DTLFERATNSSWVVVFKALVTTHH [SNAP91] | 2.62 ± 0.55 | 2.71 ± 0.48 | – | –
35 | DTNSIAKAIKARGEVIHCKLRAMK [STX11] | 2.82 ± 0.29 | 2.89 ± 0.23 | – | –
36 | DVADDFENYHKLRRSSSKCIHDHH [NETO1] | 3.85 ± 0.15 | 4.15 ± 0.11 | – | –
37 | DVLRGNDETIGFEDILNDPSQSEV [POMP] | 5.13 ± 0.092 | 5.21 ± 0.17 | – | –
38 | DWFSGHLNFQIEHHLFPTMPRHNY [FADS1] | 2.15 ± 0.48 | 2.07 ± 0.25 | – | –
39 | DWGTPRELTFSYIAFDGVVGSGGR [RTN2] | 1.91 ± 0.22 | 2.43 ± 0.37 | – | –
40 | DYEAGTLSFYNVTDRSHIYTFTDT [TRIM39] | 2.58 ± 0.38 | 2.69 ± 0.28 | – | –
41 | DYEKMFGTKCHGCDFKIDAGDRFL [PDLIM7] | 2.92 ± 0.31 | 2.96 ± 0.66 | – | –
42 | DYGVDPSQFSGTLMRTCERLVKEG [PPTC7] | 3.72 ± 0.42 | 3.79 ± 0.35 | – | –
43 | DYSRPLHISTFINELDSGFRLLNL [TSN] | 2.11 ± 0.27 | 2.21 ± 0.088 | – | –
44 | EAAAAEEGLRELQRSRRLCHEDVE [DAPK3] | 5.29 ± 0.23 | 5.4 ± 0.45 | – | –
45 | EAAGESLEEEIRRKQILLRGKLKK [ZC2HC1C] | 4.87 ± 0.33 | 4.59 ± 0.35 | – | –
46 | EAAKGGHTSVVCYLLDYPNNLLSA [ANKRD17] | 2.02 ± 0.57 | 2.06 ± 0.47 | – | –

Row | Sequence | protein stability index [1] | protein stability index [2] | protein stability index [3] | protein stability index [4]
47 | EAAMAIASLNGYRLGERVLQVSFK [ELAVL3] | 2.24 ± 0.11 | 2.27 ± 0.17 | – | –
48 | EAELELLRQFDLAWQYGPCTGITR [POLD4] | 2.85 ± 0.3 | 2.67 ± 0.3 | – | –
49 | EDDIRPDIKDDIYDPTYKDKEGPS [SCD] | 5.46 ± 0.39 | 5.37 ± 0.34 | – | –
50 | EDKIFPVPEEPPVKKLMRTSTPPP [ZBED1] | 4.8 ± 0.27 | 4.61 ± 0.34 | – | –
51 | EDLQSIIYKLEEHEEFFPAFQAFT [CEP70] | 2.38 ± 0.18 | 2.17 ± 0.31 | – | –
52 | EEAQPMAAPEGKRSLANGPNAGEQ [EID1] | 5.16 ± 0.34 | 5.48 ± 0.31 | – | –
53 | EEDIQGPTKADTEKWAEGGGHSRE [CHGB] | 5.52 ± 0.17 | 5.38 ± 0.28 | – | –
54 | EEELNFEKGETMEVIEKPENDPEW [NCK2] | 5.53 ± 0.32 | 5.55 ± 0.5 | – | –
55 | EEFIEEEDQEEEESTEGKEEGHQ [TRIM63] | – | – | 5.56 ± 0.41 | 5.71 ± 0.27
56 | EEGVVGGLSGGALSPLRAASDPLL [TFE3] | 4.33 ± 0.31 | 4.63 ± 0.4 | – | –
57 | EELEEDIRKKLKDSGDVSNVIEKV [RHOBTB3] | 5.37 ± 0.31 | 5.5 ± 0.25 | – | –
58 | EELSVLEVFEGREDSILGDPKKLL [MAGEA3] | 4.38 ± 0.28 | 4.75 ± 0.23 | – | –
59 | EETEVLAHEIERLQMEMKEDDVSF [TRIM35] | 5.43 ± 0.2 | 5.48 ± 0.094 | – | –
60 | EFETLYNEHKSCEEKSVKNTSIRV [CLK3] | 4.59 ± 0.36 | 4.77 ± 0.23 | – | –
61 | EFGYNAETQKLLCKNGETLLGAVN [ARFIP2] | 3.31 ± 0.042 | 3.29 ± 0.38 | – | –
62 | EFMLLPANQLIDIISSDELNVRSE [KLHL20] | 3.71 ± 0.37 | 3.38 ± 0.44 | – | –
63 | EFNGLKKMNPKLKTLLAIGGWNFS [CHIT1] | 2.44 ± 0.57 | 2.32 ± 0.34 | – | –
64 | EFPDFYDSEEPVSTHQEAENEKDR [CHGB] | 5.68 ± 0.25 | 5.54 ± 0.24 | – | –
65 | EGPKRELGVRRPGGAGKEGVRVNN [TCF25] | 4.7 ± 0.12 | 5.04 ± 0.16 | – | –
66 | EGVEIMLGVCASGLLIYRDRLRIN [EPB41L3] | 2.75 ± 2.1 | 2.12 ± 0.2 | – | –
67 | EHIKSLLIKNNSLPRKRQSLRSSS [INTS3] | 3.29 ± 0.17 | 3.38 ± 0.25 | – | –
68 | EHKETSRNLHSHYHEAPMTRKHYQ [POMT2] | 4.09 ± 0.28 | 4.22 ± 0.2 | – | –
69 | EHNSSLVSQQTGSPGKQPGENSDC [ZNF8] | 5.25 ± 0.3 | 5.39 ± 0.073 | – | –

Row | Sequence | protein stability index [1] | protein stability index [2] | protein stability index [3] | protein stability index [4]
70 | EHRVAGIFPRLSFKDKSTYIESST [CLPTM1] | 3.16 ± 0.2 | 2.93 ± 0.29 | – | –
71 | EILSSRASYSGKAADVWSLGVALF [TRIB3] | 2.52 ± 0.52 | 2.42 ± 0.39 | – | –
72 | EIPERRDSGVGASLTRSNRHRLRW [DLC1] | 4.17 ± 0.35 | 4.36 ± 0.32 | – | –
73 | EKEIEEATKKLGFKHPVIGVHVRR [FUT8] | 3.99 ± 0.29 | 3.9 ± 0.51 | – | –
74 | EKKVLEAGMGKVTSASFGEESTPG [HDAC6] | 5.21 ± 0.23 | 5.18 ± 0.32 | – | –
75 | EKLIQERSQQQEPLLCPSYQSYFK [KRT34] | 3.36 ± 0.23 | 3.41 ± 0.32 | – | –
76 | EKMEEEEQTCDPDSSLHWSSSYSP [ZNF396] | 5.3 ± 0.32 | 5.56 ± 0.065 | – | –
77 | EKVLDQVETELQRRNEETPEEGQQ [GDAP1] | 5.68 ± 0.14 | 5.64 ± 0.093 | – | –
78 | ELARIVLLRHGMDRLWRPSKVLSL [RAB40B] | 2.54 ± 0.67 | 2.43 ± 0.75 | – | –
79 | ELDEEEVKAATTEPTEVEEVVPAL [BCL2L13] | 5.44 ± 0.28 | 5.54 ± 0.13 | – | –
80 | ELEEDDGHGAEQAAAFPTEDSRTS [EHMT1] | 5.65 ± 0.17 | 5.7 ± 0.088 | – | –
81 | ELFEDIVAREYYSEADASHCIQQI [CAMK2B] | 2.8 ± 0.34 | 3.03 ± 0.25 | – | –
82 | ELGSPLRRSISSSRSENVLSRLSL [PSD2] | 3.07 ± 0.42 | 3.2 ± 0.13 | – | –
83 | ELMAELEELEQEELNKKMTNIRLP [CHMP4C] | 3.55 ± 0.3 | 3.65 ± 0.22 | – | –
84 | ELRRRRYEYDHWDAAIHGFRETEK [ALKBH7] | 3.5 ± 0.39 | 3.56 ± 0.44 | – | –
85 | ELRVLADTYDSVYLHPNSYSCACL [HDAC6] | 2.03 ± 0.12 | 2.04 ± 0.4 | – | –
86 | ENSVEFEACLVAQCDALIDALNRR [TRIM9] | 2.88 ± 0.24 | 3.11 ± 0.37 | – | –
87 | ENYNNLANAVISVSGINHDVTSGD [CPN1] | 4.28 ± 0.2 | 4.4 ± 0.14 | – | –
88 | EPELSPAYLISEAMRRSRMSLYC [GFOD1] | – | – | 2.3 ± 0.81 | 2.27 ± 0.3
89 | EPFGKERDAAIKKLATEAGVEVIV [CRY1] | 3.59 ± 0.22 | 3.48 ± 0.28 | – | –
